# Data published in patent US20080261267A1, “Cellulases from Rumen” (priority 2004, published 2008).
# Experiments:
# Assay type in all cases: biochemical
# [1] = Detergent resistance (effect of surfactants on activity)
# Description: The detergent resistance or in other words the effect of surfactants on the activity of the polypeptide of the invention was measured. […] Also, the effect of several commonly used inhibitors on the activity of the polypeptide of the invention was investigated. Sulfhydryl inhibitors such as N-ethylmaleimide, iodoacetate and p-chloromercuribenzoate were all inhibitory. The chelating agents EDTA (ethylenediaminetetraacetic acid) and EGTA (ethyleneglycoltetraacetic acid) a more efficient chelator of Ca^2+ (inhibition >30%) and O-phenanthroline (inhibition >71%) had essentially no effect on the activity of the polypeptides or were slightly stimulatory. In summary, the polypeptides of the invention are well suited to be used for the treatment of cellulosic textiles or fabrics, especially as an ingredient in a detergent composition, because of their high activity at high pH and high stability against metal ions or various components of laundry products such as surfactants, chelating agents or proteinases. In general, they are also suited to be used in compositions containing several commonly used inhibitors.
# (§1) FIG. 3 represents Table 3 giving an overview over the biochemical properties of the cellulases according to the invention. Reaction was performed at the optimum pH and temperature for each done using CMC as substrate. […] The values for clones pBKRR.1, 9, 11, 13, 14, 16 and 22 are depicted. For each clone the following data are given: • maximum pH at which the remaining activity after 24 h incubation at the indicate pH is >90% (column “Stable at pH”). […] Activity was measured after 2 h incubation and compared with a control reaction in buffer lacking dimethylsulfoxide, • detergent resistance given by the remaining activity in the corresponding buffer (optimum pH) containing the indicate detergent at a concentration for 0 to 3%. […] The effect of mono- (Na^+, K^+, NH4^+, and divalent cations (Ca^2+, Mn^2+, Mg^2+, Sr^2+, Fe^2+, Cu^2+, Ni^2+, Co^2+, Zn^2+) was first examined by treating the enzyme with chelating agents (EDTA and EGTA) to remove any endogenous divalent cations, followed by adding cations to the reaction mixture.
# To study the effect of cations, inhibitors and surfactants on endoglucanase activity, the conditions were as follows: All cations tested were added as chloride salts and tested at a concentration of 10 mM. […] The effects of detergents on the endoglucanase activity was analysed by adding of 1-3% (wt/vol) detergent to the enzyme solution. In all cases, the enzyme activity was assayed in triplicate using the standard cellulose assay described above and the residual activity was expressed as percent of the control value (without addition of chemicals).
# [2] = pH-dependent activity and pH stability; conditions: cell lysates; CMC; 40° C.
# Description: (§2) FIG. 3 represents Table 3 giving an overview over the biochemical properties of the cellulases according to the invention. Reaction was performed at the optimum pH and temperature for each done using CMC as substrate. […] The values for clones pBKRR.1, 9, 11, 13, 14, 16 and 22 are depicted. For each clone the following data are given: • maximum pH at which the remaining activity after 24 h incubation at the indicate pH is >90% (column “Stable at pH”). […] Activity was measured after 2 h incubation and compared with a control reaction in buffer lacking dimethylsulfoxide, • detergent resistance given by the remaining activity in the corresponding buffer (optimum pH) containing the indicate detergent at a concentration for 0 to 3%. […]
# (§3) FIG. 4 a-c represent the results of the determination of pH and temperature optima showing graphically views of the pH-dependence activity and temperature-dependence activity of the polypeptides according to the invention. The pH optima of rumial endoglucanases were measured under conditions described in Example 5: 4% CMC, 0.5 mL of 50 mM buffer at the corresponding pH and 0.1 mg E. coli cell lysates, for 5-30 min, at 40° C. Effect of temperature on endoglucanase activity was measured in 50 mM sodium acetate buffer pH 5.6. […]
# [3] = Thermal activity and thermostability; conditions: at the pH optima; CMC
# Description: as §2, §3
# Cation dependence = conditions: 10 to 100 mM
# Description: as §1
# […] Inhibitors such as N-ethylmalemide, iodoacetate and p-chloromercuribenzoate at concentration from 1-5 mM were incubated in the presence of the enzyme for 30 min (30° C.) prior to the addition of the substrate (CMC). The effects of detergents on the endoglucanase activity was analysed by adding of 1-3% (wt/vol) detergent to the enzyme solution. In all cases, the enzyme activity was assayed in triplicate using the standard cellulose assay described above and the residual activity was expressed as percent of the control value (without addition of chemicals).
Molecule,effect of SDS on activity ([1]; SDS 1 mM or higher),effect of Triton X-100 on activity ([1]; Triton X-100 up to 1-3%),activity at alkaline (pH 9.0-10.0) and acidophilic (3.5-4.0) conditions [2],"activity in the presence of SDS (% more active and stable) ([1]; SDS 1-3%, 2 h incubation, versus control without detergent) [%]","activity in the presence of Triton X-100 (% more active and stable) ([1]; Triton X-100 1-3%, 2 h incubation, versus control without detergent, pH and temperature per clone) [%]",temperature of improved activity and thermostability [3] [°C],stimulatory effect of Mg^2+ (Cation dependence; chloride salt) [%],"influence of mono- and divalent cations on activity (Cation dependence; chloride salts, after EDTA and EGTA treatment)"
"pBKRR.22: rumen endo-beta-1,4-glucanase, sequences FIG. 11/19 (protein, Description of sequence sequence derived from genomic DNA library from rumen ecosystem, particularly amino acid sequence of clones pBKRR 22, 6, 8 and 23;(see Figure 19)) MLLASFSLFSCGGSDGDDSTPTPSVSLQLVSQSIAEGAQVDAASTTVLTLNYNNPVRVTGNGVTLNGIAVKAKVSGNTSVEIPLTLVEGTVYTLKVAWGAIVAAADGKVVAPEFTLNFTTKGNQQPPIDENSPIAKKMGWGWNLGNHFDTSSGADGVRPQWGYWDNAKPTQVLYNNLRNAGTSTVRIGVTWGNYQNTSNWDIDANYIAEVRQNVEWAEAAGLNVILNMHHDEYWLDIKGAANNSSTNTNIKNRIEKTWKQIAEAFKDKGEFLIFESFNEIQDGGWGWGANRTDGGKQYKTLNEWNQLVVNTIRATGGNNATRWIGIPSYAANPSLALETGFVLPTDAANRLMVSVHFYDPSNFTLSPYVSDDSSEYKSGGYSEWGHTAAKGKADTGSNEDHVVAIFKKLHDKFVAKNIPVYIGEYGCVMHKNTRSNYFRNYYLEYVCRAAHEYGMPLCIWDNNQTGGGNEHHGYFNHTDGQYLNAMESLVKTMIKAATSDDASYTLESVYNKAPK",inhibited by SDS at concentrations higher than 1 mM,resistant to Triton X-100 up to 1-3%,without variation of enzyme activity,–,–,–,–,–
"pBKRR.14: rumen endoglucanase, sequences FIG. 16/24; also capable of hydrolyzing xylan (protein, Description of sequence sequence derived from genomic DNA library from rumen ecosystem, particularly amino acid sequence of clones pBKRR 14 and 20-1; RR14=RR20-1;(see Figure 24), also capable of hydrolyzing xylan) MINVLQHHPEVELSVDKTSVSFNRSGGEETFTVTSSTQPHVSADVSWVVVETGKIDKDHHTEVRVLAGANRKEASAGTLTVSCSDKKVSVSVKQEAFVAPSVASTTAVTPQMVFDAMGPGWNMGNHMDAISNGVSGETVWGNPKCTQATMDGVKAAGYKAVRICTTWEGHIGAAPAYALEQKWLDRVAEIVGYAEKAGLVAIVNTHHDESYWQDISKCYNNAANHEKVKDEVFSVWTQIAEKFKDKGEWLVFESFNEIQDGGWGWSDAFRKNPDAQYKVLNEWNQTFVDAVRSTGGQNATRWLGIPGYACNPGFTIAGLVLPKDYTTANRLMVAVHDYDPYDYTLKDPLIRQWGHTADADKRPSGDNEKAVVDVFNNLKAAYLDKGIPVYLGEMGCSRHTAADFPYQKYYMEYFCKAAADRLLPMYLWDNGAKGVGSERHAYIDHGTGQFVDEDARTLVGLMVKAVTTKDASYTLESVYNSAP",–,–,–,161,134,70,127,not influenced
